Assay results as given in article PMC10783494, “A conserved protein inhibitor brings under check the activity of RNase E in cyanobacteria”.
One block for each molecule: values may come before it.

Columns and labels:
[1] = biological target: RneN412, the catalytic region of Anabaena RNase E (1-412 aa) (Anabaena PCC 7120)
[2] = biological target: RneN396, the catalytic core of Anabaena RNase E (1-396 aa) (Anabaena PCC 7120); test: SPR; Biacore, 25°C, PBS pH 7.4; RneN396 (2 uM) immobilized on a streptavidin-coated sensor chip; RebA injected at 0-1000 nM; steady-state affinity
[3] = biological target: RneN396, the catalytic core of Anabaena RNase E (1-396 aa) (Anabaena PCC 7120); test: native gel or EMSA; RneN396, RebA and their mixture incubated for 30 min and separated on a native gel; the band of the complex excised and analysed by SDS-PAGE beside defined molar ratios, bands quantified with ImageJ
[4] = biological target: T1, RneN396, the catalytic core of Anabaena RNase E (1-396 aa) (Anabaena PCC 7120); test: BLI
T1 chain: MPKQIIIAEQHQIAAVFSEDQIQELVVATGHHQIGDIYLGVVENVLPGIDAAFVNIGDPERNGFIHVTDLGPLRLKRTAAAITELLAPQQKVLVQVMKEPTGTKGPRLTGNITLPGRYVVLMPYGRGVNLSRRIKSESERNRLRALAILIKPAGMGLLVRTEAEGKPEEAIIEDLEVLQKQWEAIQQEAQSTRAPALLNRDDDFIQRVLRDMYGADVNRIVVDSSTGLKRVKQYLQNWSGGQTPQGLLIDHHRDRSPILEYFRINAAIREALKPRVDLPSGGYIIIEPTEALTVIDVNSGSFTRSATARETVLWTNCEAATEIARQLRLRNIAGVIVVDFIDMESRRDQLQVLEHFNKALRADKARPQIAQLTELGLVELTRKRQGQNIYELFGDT

[5] = biological target: RebA (Anabaena PCC 7120, UniProt A0ABR7ZDZ7 1-423); test: EMSA; RebA up to 50-fold molar excess; 2 mM EDTA; 20 mM Tris-HCl pH 8.0, 200 mM NaCl, 0.1 mM DTT, 2 mM EDTA, 5% glycerol, 1 mg/ml BSA; 30 min at 30 C; 5% native PAGE at 4 C; details: protein: recombinant; tags: N-terminal Strep tag; label: 3' FAM

cleavage of 5′ p-LU13-FAM by RneN412 (0.4 nM) with increasing RebA: ratio of RebA to RneN412 for half-inhibition (RebA:RneN412 ratio) [1]: 1 | cleavage of 5′ p-LU13-FAM by RneN412 with increasing RebA (up to a RebA:RneN412 ratio of 4:1): drop of activity [1]: 90% | Kd [2]: 10.3 nM | stoichiometry N [3]: 1 RneN396:RebA
Molecule: full-length RebA bearing an N-terminal Strep tag (recombinant) (natural protein)

koff [4]: 0.000112 s⁻¹
B1: full-length RebA bearing an N-terminal Strep tag (recombinant) (natural protein)
chain: MRKLTNSDKQEILKLYRETAETTSTLAERYDVSNSTISRLLKSTLPEDEYEFLVSLKRAARTPEGRAQVSYDQIPFVGQPEEAPVISTQKVELPEPITKPEPSRVEDKPTPVIRKGRQAKPAPLPEENPQPLLAEEEKPTPVIRRGRQAKPAPLPEEEKPTPVIRKARQAKPEFFAEEEEKPTPVIRKARQAKPEFFAEEEEKPTPVIRRVRRRSASEEEDREPIARQLEIPVGKPQEIISVSSPSLEDETAEVTPMGYAPPQVIAEMLGEDLLDESEDLDDLEEDLDEDLDEEDYEDEEDDLEEARPLVTRRRFGDAAVQVLPLSVASLPKTCYLVIDRSSELITRPLKDFGDLGQIPSLETQQRTLPIFDNHRVAKRFSTKRDRVIKVPDSRMLHKARTHLQAKGITRLLIDGQVYSLSLV

Molecule: GAGACAGUAUUUG (ssRNA, 5' monophosphate) [5' p-LU13-FAM]
binding result [5]: no binding
